Experimental data reported in the supplement of paper PMC9112550, “Optimization of the antimicrobial peptide Bac7 by deep mutational scanning” (BMC Biology, 2022).

test system: Escherichia coli TOP10; test: shrunken log2 fold change of peptide-encoding DNA abundance (4.5 h post-induction vs induction); higher = less antimicrobial activity (less host growth inhibition); details: time post-induction: 4.5 h; library: site-saturation at positions 5, 18, 19, 20
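Also: peptides expressed intracellularly from a pBAD plasmid library in pooled LB shake-flask culture, induced with 0.3% L-arabinose, DNA abundance read by NGS, three biological replicates, DESeq2 with apeglm shrinkage.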

Sequence | shrunken log2 fold change
RRIRVRPPRLPRPRPRPIVRPRP | -0.0635
RRIRVRPPRLPRPRPRPIVTPRP | -0.214
RRIRVRPPRLPRPRPRPIWQPRP | -0.114
RRIRVRPPRLPRPRPRPIYGPRP | -0.0564
RRIRVRPPRLPRPRPRPKAFPRP | 0.00341
RRIRVRPPRLPRPRPRPKCMPRP | 0.0847
RRIRVRPPRLPRPRPRPKDGPRP | 0.0237
RRIRVRPPRLPRPRPRPKDPPRP | -0.106
RRIRVRPPRLPRPRPRPKGFPRP | -0.00211
RRIRVRPPRLPRPRPRPKHQPRP | 0.0697
RRIRVRPPRLPRPRPRPKIWPRP | 0.0958
RRIRVRPPRLPRPRPRPKKFPRP | -0.0429
RRIRVRPPRLPRPRPRPKKYPRP | -0.411
RRIRVRPPRLPRPRPRPKLIPRP | -0.198
RRIRVRPPRLPRPRPRPKLVPRP | 0.194
RRIRVRPPRLPRPRPRPKMCPRP | -0.00991
RRIRVRPPRLPRPRPRPKNLPRP | 0.0256
RRIRVRPPRLPRPRPRPKNWPRP | 0.185
RRIRVRPPRLPRPRPRPKPKPRP | 0.312
RRIRVRPPRLPRPRPRPKPQPRP | 0.719
RRIRVRPPRLPRPRPRPKQAPRP | 0.243
RRIRVRPPRLPRPRPRPKQFPRP | 0.109
RRIRVRPPRLPRPRPRPKREPRP | 0.225
RRIRVRPPRLPRPRPRPKRRPRP | -0.0117
RRIRVRPPRLPRPRPRPKSFPRP | 0.217

Sequence | shrunken log2 fold change
RRIRVRPPRLPRPRPRPKSGPRP | 0.148
RRIRVRPPRLPRPRPRPKSIPRP | -0.172
RRIRVRPPRLPRPRPRPKTSPRP | -0.128
RRIRVRPPRLPRPRPRPKVAPRP | 0.12
RRIRVRPPRLPRPRPRPKVFPRP | -0.0519
RRIRVRPPRLPRPRPRPKWHPRP | -0.123
RRIRVRPPRLPRPRPRPKWQPRP | -0.0246
RRIRVRPPRLPRPRPRPKWVPRP | 0.0874
RRIRVRPPRLPRPRPRPKYAPRP | -0.236
RRIRVRPPRLPRPRPRPKYCPRP | -0.221
RRIRVRPPRLPRPRPRPKYEPRP | 0.0383
RRIRVRPPRLPRPRPRPLATPRP | 0.309
RRIRVRPPRLPRPRPRPLCWPRP | 0.00832
RRIRVRPPRLPRPRPRPLDIPRP | -0.0121
RRIRVRPPRLPRPRPRPLDVPRP | -0.277
RRIRVRPPRLPRPRPRPLDYPRP | -0.244
RRIRVRPPRLPRPRPRPLEFPRP | -0.114
RRIRVRPPRLPRPRPRPLEHPRP | -0.22
RRIRVRPPRLPRPRPRPLEVPRP | 0.0693
RRIRVRPPRLPRPRPRPLFAPRP | 0.477
RRIRVRPPRLPRPRPRPLGRPRP | 0.267
RRIRVRPPRLPRPRPRPLHPPRP | 0.149
RRIRVRPPRLPRPRPRPLKHPRP | -0.486
RRIRVRPPRLPRPRPRPLLCPRP | -0.642
RRIRVRPPRLPRPRPRPLLYPRP | -0.259

Sequence | shrunken log2 fold change
RRIRVRPPRLPRPRPRPLNLPRP | -0.304
RRIRVRPPRLPRPRPRPLQCPRP | -0.371
RRIRVRPPRLPRPRPRPLQGPRP | -0.292
RRIRVRPPRLPRPRPRPLQQPRP | -0.55
RRIRVRPPRLPRPRPRPLQTPRP | 0.158
RRIRVRPPRLPRPRPRPLQVPRP | -0.0194
RRIRVRPPRLPRPRPRPLQWPRP | 0.209
RRIRVRPPRLPRPRPRPLTIPRP | -0.329
RRIRVRPPRLPRPRPRPLYEPRP | -0.168
RRIRVRPPRLPRPRPRPMARPRP | 0.0955
RRIRVRPPRLPRPRPRPMCTPRP | -0.0103
RRIRVRPPRLPRPRPRPMCWPRP | 0.00173
RRIRVRPPRLPRPRPRPMDAPRP | 0.0377
RRIRVRPPRLPRPRPRPMDGPRP | 0.145
RRIRVRPPRLPRPRPRPMENPRP | -0.0625
RRIRVRPPRLPRPRPRPMGAPRP | 0.813
RRIRVRPPRLPRPRPRPMHHPRP | -0.257
RRIRVRPPRLPRPRPRPMIEPRP | -0.255
RRIRVRPPRLPRPRPRPMIFPRP | -0.213
RRIRVRPPRLPRPRPRPMIQPRP | -0.403
RRIRVRPPRLPRPRPRPMKFPRP | -0.124
RRIRVRPPRLPRPRPRPMKTPRP | 0.00695
RRIRVRPPRLPRPRPRPMLAPRP | 0.446
RRIRVRPPRLPRPRPRPMLWPRP | 0.0613
RRIRVRPPRLPRPRPRPMNCPRP | 0.0359
